From the supplement of paper PMC10567573

B1: SPDEF (parent)
chain: YPEDSSWAAKAPGASSREEPPEEP

Variants of: B1
Assay: protein stability index of a GFP-peptide fusion (GPS, HEK-293T) (PSI 1-6); higher = more stable
Settings: c terminus: a fixed tail appended
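Also: lentivirally expressed fusions sorted by FACS into six bins by GFP to DsRed ratio, PSI derived from sequencing read proportions per bin multiplied by bin number.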

Protein stability index: each site, then its substitutions
S15: Q 3.47; V 2.7; M 3.77; K 3.23; P 4.36; E 4.14; N 3.9; R 3.96; H 4.72; L 3.58; Y 3.1; I 4.11; D 4.61; T 3.97; F 2.86; G 3.53
W7: N 5.91; Y 5.92; M 4.42; E 5.88; S 5.79; D 6; L 5.68; A 5.85; H 5.95; P 5.38; T 5.98; R 5.96; F 5.86; V 5.52
A9: Y 2.88; K 3.97; T 4.32; E 5.42; Q 4.04; I 3.23; P 4.23; M 4.11; H 3.4; D 5.61; W 3.11; R 4.36; V 3.82
A14: H 3.77; I 4.56; R 4.16; T 4.03; D 4.37; Q 4.08; E 3.88; S 4.95; P 3.94; W 3.31; Y 3.89; M 3.15
P12: R 3.76; H 4.11; I 3.62; T 4.58; Q 4.18; F 3.59; C 3.31; M 3.68; L 3.33; S 4.16; N 3.89; A 4.12; D 3.97
E18: V 4.17; R 4.32; Y 3.46; S 4.18; D 4.86; Q 3.37; F 3.05; M 3.77; N 3.43; W 3.3; H 3.86; T 3.24; C 2.82; I 4
S16: K 4.51; N 3.53; D 4.23; I 3.86; A 3.72; P 3.72; L 4.36; W 3.71; C 3.83; Q 2.88; H 3.92; M 4.67; F 4.2; V 3.78; T 2.85; Y 3.73
G13: D 3.36; E 4.05; T 3.91; A 3.64; F 3.87; N 4.22; L 4.09; P 3.94; Q 4.07; Y 3.49
K10: Y 1.79; H 3.26; S 3.69; T 3.36; N 4.19; I 3.65; Q 3.11; C 2.56; F 2.79; A 2.79
E19: C 3.58
A8: Y 3.17; F 3.33; P 5.38; L 4.72; C 4.09; R 3.28; H 2.87; N 4.45; Q 4.34; I 3.72; D 5.61
A11: Y 3.75; L 3.76; I 3.51; D 4.51; N 4.59; S 4.01; M 2.63; R 4.78; K 3.9; P 4.6; W 3.56; G 3.68; H 4.13; F 3.71; E 3.99
S6: H 4.38; V 2.94; Y 3.85; I 2.51; F 1.84; W 1.27; N 4.9; T 4.57
R17: L 3.62; C 3.96; H 4.67; M 4.22; I 4.85; N 4.14; T 4.06; P 3.85; Q 4.06; A 3.11; S 4; F 4.27; W 4.23; V 4.3
